Experimental data: patent US20220073617A1 (published 2022)
Like-named read-outs stand apart in the source and are kept apart here.

Assays:
[1] = target: T1, monovalent hVISTA-ECD (amino acids 32-193 of SEQ ID NO: 1 with a 7xHis tail) (UniProt Q9H7M9 33-193); assay: SPR; pH 6.0
[2] = target: T1, monovalent hVISTA-ECD (amino acids …); assay: SPR; pH 6.0; remark: listed apart in the source

T1 sequence (Q9H7M9 other isoform, or with tags, fused parts or gaps): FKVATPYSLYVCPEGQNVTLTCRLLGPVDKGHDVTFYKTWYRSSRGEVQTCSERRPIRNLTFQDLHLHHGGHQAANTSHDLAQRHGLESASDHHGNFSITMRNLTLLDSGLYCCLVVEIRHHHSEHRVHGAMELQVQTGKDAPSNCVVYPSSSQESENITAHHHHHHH

B1: P1-061029.IgG1.3 (antibody, V domains shown)
VH: EVQLVESGGGLVQPGKSLRLSCAASGFTLDDYAMHWVRQAPGKGLEWVSGINWNSANIGYADSVKGRFTISRDNAKNSLYLQMNSLRTEDTALYYCAKVPGYSGGWIDAFDVWGQGTMVTVSS
VL: not shown
Kd [1]: 4.5 nM | Kd [2]: 4.5 nM
